Measurements: paper PMC7195432, “MD2 activation by direct AGE interaction drives inflammatory diabetic cardiomyopathy” (Nature Communications, 2020)

Target: T1, glucose-derived AGE-modified bovine serum albumin (AGE-BSA) (bovine, UniProt P02769 25-607, advanced glycation end product (AGE) modification, glucose-derived, glycolaldehyde-mediated; the modified residues are not stated)
T1 construct: bovine serum albumin, chemically AGE-modified; A heterogeneous glycated preparation; also called AGE-modified BSA; glucose-derived, glycolaldehyde-mediated AGE-BSA; source: bought: BioVision Incorporated (Cat # 2223), purity >98%
Assay: ITC; Nano-ITC, 25 °C, proteins in ddH2O; AGE-BSA (1 μM) in the cell, MD2 protein solution (5 μM) in the syringe, 20 injections of 2.5 μL; independent model
Conditions: both partners purified

T1 sequence (P02769 25-607): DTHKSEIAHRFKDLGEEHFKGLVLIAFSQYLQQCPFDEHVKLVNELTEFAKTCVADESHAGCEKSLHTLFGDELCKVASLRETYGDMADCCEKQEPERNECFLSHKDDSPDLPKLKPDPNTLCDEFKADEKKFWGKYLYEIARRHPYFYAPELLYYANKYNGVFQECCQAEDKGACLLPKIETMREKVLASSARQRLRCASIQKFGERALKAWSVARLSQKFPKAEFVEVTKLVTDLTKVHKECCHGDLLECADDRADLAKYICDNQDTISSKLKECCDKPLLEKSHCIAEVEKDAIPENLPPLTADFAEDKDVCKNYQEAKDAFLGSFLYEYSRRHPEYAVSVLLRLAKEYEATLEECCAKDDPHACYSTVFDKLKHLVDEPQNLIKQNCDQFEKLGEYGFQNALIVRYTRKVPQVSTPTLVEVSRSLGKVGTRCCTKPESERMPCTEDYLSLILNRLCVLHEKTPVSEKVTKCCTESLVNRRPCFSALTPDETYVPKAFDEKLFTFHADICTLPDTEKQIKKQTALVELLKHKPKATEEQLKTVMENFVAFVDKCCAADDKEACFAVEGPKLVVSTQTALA

B1: recombinant human MD2 (rhMD2) (natural protein, UniProt Q9Y6Y9 19-160, looked up)
chain: QKQYWVCNSSDASISYTYCDKMQYPISINVNPCIELKRSKGLLHIFYIPRRDLKQLYFNLYITVNTMNLPKRKEVICRGSDDDYSFCRALKGETVNTTISFSFKGIKFSKGKYKCVVEAISGSPEEMLFCLEFVILHQPNSN
notes: MD2 (myeloid differentiation 2), human, recombinant; also called human recombinant MD2 protein; source: bought: R&D Systems
- Kd: 81 µM
